The source of these data is paper PMC5100589.

As usually defined, the Kd is the constant that tells how readily two partners part at equilibrium. Read a high Kd as weaker binding.

For one data set, the target named is GST-YY1(F1-4) (human, UniProt P25490 292-414). The data set is described as follows: competition.
The target of another data set is YY1(F1-4) (human, UniProt P25490 292-414). The data set is described as follows: MST.
The next data set has as its target YY1(mut5) (human, UniProt P25490 292-414, V324A;H325A;V326A;L340A;Q344A). The data set can be described thus: MST.
Another data set has as its target YY1(F1-4) H325A (human, UniProt P25490 292-414, H325A). The data set is described as follows: EMSA. For orientation: A gel shift assay detects complexes by their altered migration in electrophoresis.
The target of a further data set is YY1(F1-4) R323A (human, UniProt P25490 292-414, R323A). The data set can be described thus: EMSA.
Sequence of YY1(F1-4) R323A (P25490 292-414 R323A): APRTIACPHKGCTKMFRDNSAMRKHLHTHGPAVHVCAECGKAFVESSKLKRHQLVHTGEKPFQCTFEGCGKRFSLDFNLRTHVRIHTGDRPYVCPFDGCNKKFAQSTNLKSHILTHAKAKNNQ
For a further data set, the target named is YY1(F1-4) Q344A (human, UniProt P25490 292-414, Q344A). The data set can be described thus: EMSA.
Sequence of YY1(F1-4) Q344A (P25490 292-414 Q344A): as the sequence (P25490 292-414 R323A) above, with A32R, Q53A counted along it

Sequence of YY1(F1-4) (P25490 292-414): as the sequence (P25490 292-414 R323A) above, with A32R counted along it
Sequence of GST-YY1(F1-4) (P25490 292-414): as the sequence (P25490 292-414 R323A) above, with A32R counted along it
Sequence of YY1(mut5) (P25490 292-414 V324A/H325A/V326A/L340A/Q344A): as the sequence (P25490 292-414 R323A) above, with A32R, V33A, H34A, V35A, L49A, Q53A counted along it
Sequence of YY1(F1-4) H325A (P25490 292-414 H325A): as the sequence (P25490 292-414 R323A) above, with A32R, H34A counted along it

B1: AAV P5 dsDNA (dsDNA)
DNA 1: AGGGTCTCCATTTTGAAGCG
DNA 2: CGCTTCAAAATGGAGACCCT
Turning to B1, the binding result with GST-YY1(F1-4) is on record as “binds”.

For AAAAAAAAAAAAAA (ssRNA) [poly(A) RNA], binding in the data set with YY1(F1-4) was put at a Kd of 4.2 ± 0.5 µM.

As for AGGCGAUGGUGAGC (ssRNA) [m2 RNA], the Kd was 31 ± 9 µM in the data set with YY1(mut5) and 3.8 ± 0.6 µM with YY1(F1-4). Moreover, the binding result with YY1(F1-4) H325A, in the data set with YY1(F1-4) R323A and with YY1(F1-4) Q344A was “binds” each time.
